Assay results published in patent US20130209454A1.

Experiments:
Assay in all cases: cell-based or functional assay
[1] = target: HIV-1 Env of strain 231966.c02 (HIV-1)
[2] = target: Env of HIV-1 strain 6240_08_TA5_4622 (HIV-1)
[3] = target: Env of HIV-1 strain 246F C1G (HIV-1)
[4] = target: Env of HIV-1 strain 6952.v1.c20 (HIV-1)
[5] = target: HIV-1 Env of strain REJO4541.67 (HIV-1)
[6] = target: HIV-1 Env of strain HIV-0013095-2.11 (HIV-1)
[7] = target: HIV-1 Env of strain 191821_E6_1 (HIV-1)
[8] = target: HIV-1 Env of strain 3415.v1.c1 (HIV-1)
[9] = target: HIV-1 Env of strain P0402_c2_11 (HIV-1)
[10] = target: Env of HIV-1 strain PVO.4 (HIV-1)
[11] = target: Env of HIV-1 strain ZM214M.PL15 (HIV-1)
[12] = target: HIV-1 Env of strain 89-F1_2_25 (HIV-1)
[13] = target: HIV-1 Env of strain BJOX028000.10.3 (HIV-1)
[14] = target: HIV-1 Env of strain ZM249M.PL1 (HIV-1)
[15] = target: HIV-1 Env of strain 1012_11_TC21_3257 (HIV-1)
[16] = target: Env of HIV-1 strain HIV-16055-2.3 (HIV-1)
[17] = target: Env of HIV-1 strain 6811.v7.c18 (HIV-1)
[18] = target: Env of HIV-1 strain 6535.3 (HIV-1)
[19] = target: HIV-1 Env of strain P1981_C5_3 (HIV-1)
[20] = target: Env of HIV-1 strain SC05_8C11_2344 (HIV-1)
[21] = target: Env of HIV-1 strain 620345.c01 (HIV-1)
[22] = target: Env of HIV-1 strain CAAN5342.A2 (HIV-1)
[23] = target: HIV-1 Env of strain 6535.3 (HIV-1)
[24] = target: Env of HIV-1 strain AC10.0.29 (HIV-1)
[25] = target: HIV-1 Env of strain C3347.c11 (HIV-1)
[26] = target: Env of HIV-1 strain CNE5 (HIV-1)
[27] = target: Env of HIV-1 strain 231966.c02 (HIV-1)
[28] = target: Env of HIV-1 strain SC422661.8 (HIV-1)
[29] = target: Env of HIV-1 strain C1080.c03 (HIV-1)
[30] = target: Env of HIV-1 strain Ce1172_H1 (HIV-1)
[31] = target: Env of HIV-1 strain 9004SS_A3_4 (HIV-1)
[32] = target: Env of HIV-1 strain CNE17 (HIV-1)
[33] = target: HIV-1 Env of strain 231965.c01 (HIV-1)
[34] = target: HIV-1 Env of strain 191084 B7-19 (HIV-1)
[35] = target: HIV-1 Env of strain 1054_07_TC4_1499 (HIV-1)
[36] = target: HIV-1 Env of strain 6041.v3.c23 (HIV-1)
[37] = target: HIV-1 Env of strain 6540.v4.c1 (HIV-1)
[38] = target: Env of HIV-1 strain 7030102001E5(Rev-) (HIV-1)
[39] = target: HIV-1 Env of strain T278-50 (HIV-1)
[40] = target: Env of HIV-1 strain TRO.11 (HIV-1)
[41] = target: Env of HIV-1 strain 3301.v1.c24 (HIV-1)
[42] = target: Env of HIV-1 strain Q842.d12 (HIV-1)
[43] = target: Env of HIV-1 strain 249M B10 (HIV-1)
[44] = target: Env of HIV-1 strain Ce1086_B2 (HIV-1)
[45] = target: HIV-1 Env of strain Q23.17 (HIV-1)
[46] = target: Env of HIV-1 strain Ce2010_F5 (HIV-1)
[47] = target: Env of HIV-1 strain BJOX025000.01.1 (HIV-1)
[48] = target: HIV-1 Env of strain HIV-16845-2.22 (HIV-1)
[49] = target: Env of HIV-1 strain R1166.c01 (HIV-1)
[50] = target: HIV-1 Env of strain SC05_8C11_2344 (HIV-1)

NIH45-46 (antibody), sequence (VH): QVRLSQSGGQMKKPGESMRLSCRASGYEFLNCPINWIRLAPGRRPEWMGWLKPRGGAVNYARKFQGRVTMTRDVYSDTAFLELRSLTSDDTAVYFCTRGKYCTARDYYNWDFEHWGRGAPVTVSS
NIH45-46 (antibody), sequence (V domain): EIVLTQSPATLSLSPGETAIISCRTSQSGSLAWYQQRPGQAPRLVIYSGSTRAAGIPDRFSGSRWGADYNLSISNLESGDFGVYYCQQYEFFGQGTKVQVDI

Substance NIH45-46 (antibody) has an IC50, pseudovirus neutralization [1] of 1.64 µg/mL, an IC80 [2] of 1.55 µg/mL and an IC80 [3] of over 50 µg/mL. It also gave an IC80 [4] of 0.07 µg/mL, an IC50, pseudovirus neutralization [5] of 0.014 µg/mL and an IC50, pseudovirus neutralization [6] of 0.01 µg/mL. It also gave an IC50, pseudovirus neutralization [7] of 0.09 µg/mL, an IC50, pseudovirus neutralization [8] of 0.022 µg/mL and an IC50, pseudovirus neutralization [9] of 0.073 µg/mL. The IC80 [10] was 0.41 µg/mL, the IC80 [11] was 0.59 µg/mL and the IC50, pseudovirus neutralization [12] was over 50 µg/mL. It also gave an IC50, pseudovirus neutralization [13] of 0.07 µg/mL, an IC50, pseudovirus neutralization [14] of 0.017 µg/mL and an IC50, pseudovirus neutralization [15] of 0.01 µg/mL. It also gave an IC80 [16] of 0.06 µg/mL, an IC80 [17] of 0.113 µg/mL and an IC80 [18] of 0.54 µg/mL. For the same substance, the IC50, pseudovirus neutralization [19] was 0.08 µg/mL, the IC80 [20] was 0.38 µg/mL and the IC80 [21] was over 50 µg/mL. It also gave an IC80 [22] of 0.4 µg/mL, an IC50, pseudovirus neutralization [23] of 0.14 µg/mL and an IC80 [24] of 1.93 µg/mL. For the same substance, the IC50, pseudovirus neutralization [25] was 0.029 µg/mL, the IC80 [26] was 0.41 µg/mL and the IC80 [27] was 9.64 µg/mL. For the same substance, the IC80 [28] was 0.13 µg/mL, the IC80 [29] was 11.6 µg/mL and the IC80 [30] was over 50 µg/mL. The IC80 [31] was 0.65 µg/mL, the IC80 [32] was 0.734 µg/mL and the IC50, pseudovirus neutralization [33] was 0.051 µg/mL. For the same substance, the IC50, pseudovirus neutralization [34] was 0.02 µg/mL, the IC50, pseudovirus neutralization [35] was 0.113 µg/mL and the IC50, pseudovirus neutralization [36] was 0.006 µg/mL. For the same substance, the IC50, pseudovirus neutralization [37] was over 50 µg/mL, the IC80 [38] was 0.63 µg/mL and the IC50, pseudovirus neutralization [39] was over 50 µg/mL. It also gave an IC80 [40] of 7.49 µg/mL, an IC80 [41] of 0.033 µg/mL and an IC80 [42] of 0.073 µg/mL. It also gave an IC80 [43] of 0.17 µg/mL, an IC80 [44] of 0.28 µg/mL and an IC50, pseudovirus neutralization [45] of 0.14 µg/mL. For the same substance, the IC80 [46] was 0.357 µg/mL, the IC80 [47] was 10 µg/mL and the IC50, pseudovirus neutralization [48] was 5 µg/mL. It also gave an IC80 [49] of 1.21 µg/mL and an IC50, pseudovirus neutralization [50] of 0.14 µg/mL.
